According to patent publication US20210388087A1 (Chugai, published 2021):
Substitutions are numbered along the chain they refer to. Names and notes keep the numbering of the source. Values belong to the binder of their own block, whether it stands above or below them.

Target: T1, Human CD3eg linker (human)
T1 construct: single-chain construct; also called recombinant human CD3
T1 chain: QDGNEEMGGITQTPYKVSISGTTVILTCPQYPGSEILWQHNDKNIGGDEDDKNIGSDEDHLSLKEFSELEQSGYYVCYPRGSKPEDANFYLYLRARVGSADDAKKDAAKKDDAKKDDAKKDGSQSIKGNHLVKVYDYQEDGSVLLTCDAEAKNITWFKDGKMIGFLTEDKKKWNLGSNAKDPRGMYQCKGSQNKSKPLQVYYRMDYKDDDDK
Assay: SPR, vs unmutated H183/L072

- fold change of affinity: 0.6 fold
B1: dBBDu183H T100bD/dBBDu072L (antibody, name in Kabat numbering, V domains shown)
VH: QVQLVESGGGLVQPGRSLRLSCAASGFTFSNAWMHWVRQAPGKGLEWVAQIKDKGNAYAAYYAPSVKGRFTISRDDSKNSIYLQMNSLKTEDTAVYYCHYVHYASASDVLPAFGVDAWGQGTTVTVSS
VL: DIVMTQSPLSLPVTPGEPASISCQASQELVHMNRNTYLHWYQQKPGQAPRLLIYKVSNRFPGVPDRFSGSGSGTDFTLKISRVEAEDVGVYYCAQGTSVPFTFGQGTKLEIK

- fold change of affinity: 0 fold
B2: dBBDu183H V95E/dBBDu072L (antibody, name in Kabat numbering, V domains shown)
VH: B1 VH with V101E, D108T
VL: B1 VL

- fold change of affinity: 1.8 fold
B3: dBBDu183H T100bY/dBBDu072L (antibody, name in Kabat numbering, V domains shown)
VH: B1 VH with D108Y
VL: B1 VL

- fold change of affinity: 1.1 fold
B4: dBBDu183H V63S/dBBDu072L (antibody, name in Kabat numbering, V domains shown)
VH: B1 VH with V66S, D108T
VL: B1 VL

- fold change of affinity: 1.5 fold
B5: dBBDu183H T100bS/dBBDu072L (antibody, name in Kabat numbering, V domains shown)
VH: B1 VH with D108S
VL: B1 VL

- fold change of affinity: 0 fold
B6: dBBDu183H V95Y/dBBDu072L (antibody, name in Kabat numbering, V domains shown)
VH: B1 VH with V101Y, D108T
VL: B1 VL

- fold change of affinity: 0 fold
B7: dBBDu183H V95R/dBBDu072L (antibody, name in Kabat numbering, V domains shown)
VH: B1 VH with V101R, D108T
VL: B1 VL

- fold change of affinity: 1.2 fold
B8: dBBDu183H V100cH/dBBDu072L (antibody, name in Kabat numbering, V domains shown)
VH: B1 VH with D108T, V109H
VL: B1 VL

- fold change of affinity: 1.3 fold
B9: dBBDu183H T100bK/dBBDu072L (antibody, name in Kabat numbering, V domains shown)
VH: B1 VH with D108K
VL: B1 VL

- fold change of affinity: 0 fold
B10: dBBDu183H V95S/dBBDu072L (antibody, name in Kabat numbering, V domains shown)
VH: B1 VH with V101S, D108T
VL: B1 VL

- fold change of affinity: 0.6 fold
B11: dBBDu183H T100bE/dBBDu072L (antibody, name in Kabat numbering, V domains shown)
VH: B1 VH with D108E
VL: B1 VL

- fold change of affinity: 1.1 fold
B12: dBBDu183H V63E/dBBDu072L (antibody, name in Kabat numbering, V domains shown)
VH: B1 VH with V66E, D108T
VL: B1 VL

- fold change of affinity: 1.3 fold
B13: dBBDu183H V63K/dBBDu072L (antibody, name in Kabat numbering, V domains shown)
VH: B1 VH with V66K, D108T
VL: B1 VL

- fold change of affinity: 1.3 fold
B14: dBBDu183H V63N/dBBDu072L (antibody, name in Kabat numbering, V domains shown)
VH: B1 VH with V66N, D108T
VL: B1 VL

- fold change of affinity: 1.3 fold
B15: dBBDu183H V63D/dBBDu072L (antibody, name in Kabat numbering, V domains shown)
VH: B1 VH with V66D, D108T
VL: B1 VL

- fold change of affinity: 1.5 fold
B16: dBBDu183H V100cG/dBBDu072L (antibody, name in Kabat numbering, V domains shown)
VH: B1 VH with D108T, V109G
VL: B1 VL

- fold change of affinity: 0 fold
B17: dBBDu183H V95D/dBBDu072L (antibody, name in Kabat numbering, V domains shown)
VH: B1 VH with V101D, D108T
VL: B1 VL

- fold change of affinity: 1.2 fold
B18: dBBDu183H V63R/dBBDu072L (antibody, name in Kabat numbering, V domains shown)
VH: B1 VH with V66R, D108T
VL: B1 VL

- fold change of affinity: 1.8 fold
B19: dBBDu183H T100bW/dBBDu072L (antibody, name in Kabat numbering, V domains shown)
VH: B1 VH with D108W
VL: B1 VL

- fold change of affinity: 1 fold
B20: dBBDu183H T100bN/dBBDu072L (antibody, name in Kabat numbering, V domains shown)
VH: B1 VH with D108N
VL: B1 VL

- fold change of affinity: 0 fold
B21: dBBDu183H V95F/dBBDu072L (antibody, name in Kabat numbering, V domains shown)
VH: B1 VH with V101F, D108T
VL: B1 VL

- fold change of affinity: 1.1 fold
B22: dBBDu183H V63Y/dBBDu072L (antibody, name in Kabat numbering, V domains shown)
VH: B1 VH with V66Y, D108T
VL: B1 VL

- fold change of affinity: 0.8 fold
B23: dBBDu183H V100cD/dBBDu072L (antibody, name in Kabat numbering, V domains shown)
VH: B1 VH with D108T, V109D
VL: B1 VL

- fold change of affinity: 1 fold
B24: dBBDu183H V63G/dBBDu072L (antibody, name in Kabat numbering, V domains shown)
VH: B1 VH with V66G, D108T
VL: B1 VL

- fold change of affinity: 1.8 fold
B25: dBBDu183H T100bR/dBBDu072L (antibody, name in Kabat numbering, V domains shown)
VH: B1 VH with D108R
VL: B1 VL

- fold change of affinity: 1.1 fold
B26: dBBDu183H V63F/dBBDu072L (antibody, name in Kabat numbering, V domains shown)
VH: B1 VH with V66F, D108T
VL: B1 VL

- fold change of affinity: 1 fold
B27: dBBDu183H V63H/dBBDu072L (antibody, name in Kabat numbering, V domains shown)
VH: B1 VH with V66H, D108T
VL: B1 VL

- fold change of affinity: 0.8 fold
B28: dBBDu183H V100cE/dBBDu072L (antibody, name in Kabat numbering, V domains shown)
VH: B1 VH with D108T, V109E
VL: B1 VL

- fold change of affinity: 0.8 fold
B29: dBBDu183H V63W/dBBDu072L (antibody, name in Kabat numbering, V domains shown)
VH: B1 VH with V66W, D108T
VL: B1 VL

- fold change of affinity: 0 fold
B30: dBBDu183H V95K/dBBDu072L (antibody, name in Kabat numbering, V domains shown)
VH: B1 VH with V101K, D108T
VL: B1 VL

- fold change of affinity: 1.8 fold
B31: dBBDu183H V100cF/dBBDu072L (antibody, name in Kabat numbering, V domains shown)
VH: B1 VH with D108T, V109F
VL: B1 VL

- fold change of affinity: 1.2 fold
B32: dBBDu183H T100bV/dBBDu072L (antibody, name in Kabat numbering, V domains shown)
VH: B1 VH with D108V
VL: B1 VL

- fold change of affinity: 0 fold
B33: dBBDu183H V95Q/dBBDu072L (antibody, name in Kabat numbering, V domains shown)
VH: B1 VH with V101Q, D108T
VL: B1 VL

- fold change of affinity: 0 fold
B34: dBBDu183H V95N/dBBDu072L (antibody, name in Kabat numbering, V domains shown)
VH: B1 VH with V101N, D108T
VL: B1 VL

- fold change of affinity: 0 fold
B35: dBBDu183H V95H/dBBDu072L (antibody, name in Kabat numbering, V domains shown)
VH: B1 VH with V101H, D108T
VL: B1 VL

- fold change of affinity: 1.2 fold
B36: dBBDu183H T100bF/dBBDu072L (antibody, name in Kabat numbering, V domains shown)
VH: B1 VH with D108F
VL: B1 VL

- fold change of affinity: 1.1 fold
B37: dBBDu183H T100bG/dBBDu072L (antibody, name in Kabat numbering, V domains shown)
VH: B1 VH with D108G
VL: B1 VL

- fold change of affinity: 1.2 fold
B38: dBBDu183H T100bH/dBBDu072L (antibody, name in Kabat numbering, V domains shown)
VH: B1 VH with D108H
VL: B1 VL

- fold change of affinity: 0 fold
B39: dBBDu183H V95G/dBBDu072L (antibody, name in Kabat numbering, V domains shown)
VH: B1 VH with V101G, D108T
VL: B1 VL

- fold change of affinity: 0 fold
B40: dBBDu183H V95T/dBBDu072L (antibody, name in Kabat numbering, V domains shown)
VH: B1 VH with V101T, D108T
VL: B1 VL

- fold change of affinity: 1.2 fold
B41: dBBDu183H V63Q/dBBDu072L (antibody, name in Kabat numbering, V domains shown)
VH: B1 VH with V66Q, D108T
VL: B1 VL

- fold change of affinity: 1.2 fold
B42: dBBDu183H V63T/dBBDu072L (antibody, name in Kabat numbering, V domains shown)
VH: B1 VH with V66T, D108T
VL: B1 VL

- fold change of affinity: 1.2 fold
B43: dBBDu183H V100cK/dBBDu072L (antibody, name in Kabat numbering, V domains shown)
VH: B1 VH with D108T, V109K
VL: B1 VL

- fold change of affinity: 1.1 fold
B44: dBBDu183H T100bQ/dBBDu072L (antibody, name in Kabat numbering, V domains shown)
VH: B1 VH with D108Q
VL: B1 VL

- fold change of affinity: 0 fold
B45: dBBDu183H V95W/dBBDu072L (antibody, name in Kabat numbering, V domains shown)
VH: B1 VH with V101W, D108T
VL: B1 VL
